Measured values reported in patent publication WO2009147196A1.

Experiments:
[1] = molecular target: EYFP-Rev (HIV-1) (UniProt P04618); experiment: FRET Rev-multimerization assay, purified proteins mixed
[2] = molecular target: EYFP-Rev (HIV-1) (UniProt P04618); experiment: FRET Rev-multimerization assay, negative control ECFP + EYFP-Rev

EYFP-Rev (HIV-1), sequence (P04618 whole entry): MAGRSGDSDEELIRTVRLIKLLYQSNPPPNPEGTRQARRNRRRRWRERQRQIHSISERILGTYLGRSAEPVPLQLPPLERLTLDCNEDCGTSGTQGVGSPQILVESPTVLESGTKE

In the case of ECFP-Rev (from UniProt P04618 1-116), the FRET efficiency [1] is reported as 20 to 35%.
Work on free ECFP yielded an FRET efficiency [2] of 1.6%.
